Laboratory results reported in patent US6391584B1, “Expression-cloning method for identifying target proteins for eukaryotic tyrosine kinases and novel target proteins” (New York University Medical Center, priority 1991, dated 2002).

Key:
[1] = molecular target: trpE/GAP SH2 fusion protein (GAP residues 171-448) (UniProt P00895); experiment: filter binding: 32P-labelled probe on fusion protein spotted on nitrocellulose
[2] = molecular target: tyrosine phosphorylated wild-type EGF receptor, full length (human) (UniProt P00533); experiment: immunoprecipitated autophosphorylated EGFR, anti-PLC-γ blot with 125I-protein A, bands counted
[3] = tested on: GRB2 phosphorylation in HER14 cells; experiment: GRB2 phosphorylation in (32P) orthophosphate-labelled, EGF stimulated HER14 cells; format: cell-based; conditions: vanadate (200 μM) at 37° C. for 20 min prior to the addition of EGF
Experimental: Labeling cells with (^32P)-orthophosphate were carried out as previously described (Li et al., Mol. Biol. Cell 2:641-649, 1991). Briefly, confluent HER14 cells starved for 16 hrs in 1% FCS/DMEM were incubated for two hours in Pi-free media, and labeled for two hours in Pi-free media, dialyzed FBS, 1 mCi/ml orthophosphate (carrier free, 314.5-337.5 TBq/mmole, purchased form NEN, Wilmington, Del.) at 37° C. Where appropriate, cells were incubated with vanadate (200 μM) at 37° C. for the last 20 minutes of cell labeling. Cells were then stimulated for two minutes with EGF (250 ng/ml) or PDGF (50 ng/ml), rapidly washed 2 times with ice cold phosphate-buffered saline (PBS), and solubilized immediately in lysis buffer (10 mM Tris-Cl pH 7.6, 50 mM NaCl, […] sodium pyrophosphate, 50 mM sodium fluoride, 100 μM sodium orthovanadate, 5 μM ZnCl2, 1 mM PMSF and 0.5% Triton-X-100). […]
To determine if the failure to detect tyrosine phosphorylated GRB2 was due to the rapid dephosphorylation by a protein tyrosine phosphatase, a potent tyrosine phosphatase inhibitor, vanadate, was tested for its effects upon GRB2 phosphorylation. (^32p) orthophosphate-labelled cells were incubated with or without vanadate at 37° C. for 20 min prior to the addition of EGF, and GRB2 phosphorylation was assessed as described above.

[4] = molecular target: T1, tyrosine phosphorylated EGFR-C (intracellular domain of the EGF receptor, baculovirus expressed) (human, UniProt P00533 669-1210, tyrosine autophosphorylated with MnCl2 and ATP; positions not given); experiment: EGFR-C immunoprecipitated with antibody C, anti-trpE immunoblot
T1 construct: domain: intracellular domain; Produced in baculovirus-infected SF9 cells; also called EGFR cytoplasmic domain; phosphorylated kinase
Experimental: In FIG. 12A, EGFR-C (0.5 μg) was immunoprecipitated with antibody C and washed. […] The immunoprecipitates were separated on a 10% SDS-gel, transferred to nitrocellulose and immunoblotting was performed with anti-trpE. […] Phosphorylated or non-phosphorylated EGFR-C (0.5 μg) was then added and allowed to bind as above. After washing, samples were separated on a 10% gel, transferred to nitrocellulose and probed with antibody C. The two samples on the right represent 0.5 μg of phosphorylated and non-phosphorylated kinase loaded directly onto the gel (exposure time: 2 h).

EGFR-C = molecular target: T2, EGFR-C (Homo sapiens, UniProt P00533); experiment: Binding of trpE/GAP SH2 fusion protein to baculovirus expressed EGFR-C (immunoprecipitation / immunoblot); conditions: phosphorylated vs non-phosphorylated EGFR-C, FIG. 12A
T2 construct: EGFR-C represents a deletion mutant containing the cytoplasmic domain of the EGF receptor produced by baculovirus-infected SF9 cells; made in house; host or cells: baculovirus-infected SF9 insect cells
Experimental: FIGS. 12A and 12B are representations of a gel pattern showing binding of EGFR-C to trpE proteins. In FIG. 12A, EGFR-C (0.5 μg) was immunoprecipitated with antibody C and washed. MnCl2 alone or MnCl2 and ATP were then added to facilitate autophosphorylation of TrpE or trpE/GAP SH2 (approximately 2 μg). The immunoprecipitates were separated on a 10% SDS-gel, transferred to nitrocellulose and immunoblotting was performed with anti-trpE. For comparison, about 0.1 μg of trpE or trpE/GAP SH2 lysate was loaded directly on to the gel (right panel of 12A). In FIG. 12B, trpE or trpE/GAP SH2 was immunoprecipitated with anti-trpE antibodies and washed. Phosphorylated or non-phosphorylated EGFR-C (0.5 μg) was then added and allowed to bind as above. After washing, samples were separated on a 10% gel, transferred to nitrocellulose and probed with antibody C. The two samples on the right represent 0.5 μg of phosphorylated and non-phosphorylated kinase loaded directly onto the gel (exposure time: 2 h). The preparation of trpE fusion proteins containing the GAP SH2 domain (GAP residues 171-448, 10 FIG. 9B) has been described by Moran, M. F. et al., Proc. Natl. Acad. Sci. USA 87: 8622-8626 (1990). Bacterial lysates containing trpE/GAP SH2 fusion proteins were prepared by resuspending 1 g of bacteria in 3 ml of 50 mM Tris pH 7.5, 0.5 mm EDTA, 0.1 mm PMSF. […]

“tyrosine phosphorylated C-terminal CNBr fragment of the EGF receptor (EGFR 984/1186) (from UniProt P00533 1008-1210)” was tested, and the amount of spotted fusion protein at which binding was still detected [1] was < 5 ng.

“PLC-γ (phosphatidylinositol specific phospholipase C-γ), non-phosphorylated, from 3TP1 cell lysate (enzyme)” was tested, and the percent remaining bound after three washes with HNTG [2] was 50%.

For `[O]=[V]([O-])([O-])[O-]` [Vanadate, vanadate], the “effect on GRB2 phosphorylation” value [3] was “did not result in detectable GRB2 phosphorylation”.

B1: trpE protein alone (other, UniProt P00895 1-323, looked up)
chain: MQTQKPTLELLTCEGAYRDNPTALFHQLCGDRPATLLLESADIDSKDDLKSLLLVDSALRITALGDTVTIQALSGNGEALLALLDNALPAGVESEQSPNCRVLRFPPVSPLLDEDARLCSLSVFDAFRLLQNLLNVPKEEREAMFFGGLFSYDLVAGFEDLPQLSAENNCPDFCFYLAETLMVIDHQKKSTRIQASLFAPNEEEKQRLTARLNELRQQLTEAAPPLPVVSVPHMRCECNQSDEEFGGVVRLLQKAIRAGEIFQVVPSRRFSLPCPSPLAAYYVLKKSNPSPYMFFMQDNDFTLFGASPESSLKYDATSRQIEI
notes: Control for the trpE/GAP SH2 fusion; also called bacterial protein alone
B1: no binding [4].

B2: trpe protein: bacterial trpE protein alone, used as control for the fusion protein (protein)
chain: MQTQKPTLELLTCEGAYRDNPTALFHQLCGDRPATLLLESADIDSKDDLKSLLLVDSALRITALGDTVTIQALSGNGEALLALLDNALPAGVESEQSPNCRVLRFPPVSPLLDEDARLCSLSVFDAFRLLQNLLNVPKEEREAMFFGGLFSYDLVAGFEDLPQLSAENNCPDFCFYLAETLMVIDHQKKSTRIQASLFAPNEEEKQRLTARLNELRQQLTEAAPPLPVVSVPHMRCECNQSDEEFGGVVRLLQKAIRAGEIFQVVPSRRFSLPCPSPLAAYYVLKKSNPSPYMFFMQDNDFTLFGASPESSLKYDATSRQIEI
B2 was tested, and the “binding to EGFR-C” value (EGFR-C) was “did not bind”.

B3: trpE/GAP SH2 fusion protein: bacterially expressed trpE fusion protein containing the GAP SH2 domain (GAP residues 171-448) (protein)
chain: MQTQKPTLELLTCEGAYRDNPTALFHQLCGDRPATLLLESADIDSKDDLKSLLLVDSALRITALGDTVTIQALSGNGEALLALLDNALPAGVESEQSPNCRVLRFPPVSPLLDEDARLCSLSVFDAFRLLQNLLNVPKEEREAMFFGGLFSYDLVAGFEDLPQLSAENNCPDFCFYLAETLMVIDHQKKSTRIQASLFAPNEEEKQRLTARLNELRQQLTEAAPPLPVVSVPHMRCECNQSDEEFGGVVRLLQKAIRAGEIFQVVPSRRFSLPCPSPLAAYYVLKKSNPSPYMFFMQDNDFTLFGASPESSLKYDATSRQIEIIPLTAPPTNQWYHGKLDRTIAEERLRQAGKSGSYLIRESDRRPGSFVLSFLSQMNVVNHFRIIAMCGDYYIGGRRFSSLSDLIGYYSHVSCLLKGEKLLYPVAPPEPVEDRRRVRAILPYTKVPDTDEISFLKGDMFIVHNELEDGWMWVTNLRTDEQGLIVEDLVEEVGREEDPHEGKIWFHGKISKQEAYNLLMTVGQVCSFLVRPSDNTPGDYSLYFRTNENIQRFKICPTPNNQFMMGGRYYNSIGDIIDHYRKEQIVEGYYLKEPVPMQDQEQ
With B3 the “binding to EGFR-C” value (EGFR-C) was “bound only to the tyrosine phosphorylated EGFR-C”.
